Amyloid nucleation score data for 142 substances are collected here from the supplement of paper PMC12042874.

± gives the uncertainty stated by the source.

This series in a line: amyloid nucleation score (Sup35N fusion, yeast selection) (log enrichment); library NNK1; higher = more nucleation; inactive = no reads after selection. An outline of the steps: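 The nucleation score is a DiMSum log enrichment of output over input reads, centred on the mode score of non-aggregating sequences. Sequences under 100 input reads were excluded, and reads came from Illumina sequencing of plasmid inserts. Psi-negative yeast expressing Sup35N fused to peptides of 20 random codons were induced with 100 μM copper sulfate for 24 hours and grown 7 days at 30°C on medium lacking adenine and uracil. Random libraries had three technical output replicates.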
Consider GDNVFFMLERALFVVRNRRV, for which the amyloid nucleation score is -0.386 ± 0.86.
YASGLNSHDELVFYFYNRER: the amyloid nucleation score result is “inactive”.
On to NSRMRFILGTFY, for which the amyloid nucleation score is 1.63 ± 0.41.
Next, INYTTWHYASCFRFT: 2.82 ± 0.14; AWNRYIFIPTLEFTVLCMWC: 6.139 ± 0.058; RLYNLTSVRKFVLLSSM: 0.235 ± 0.4.
Next, KAQGPSFYEYRWITLNYLGY: 1.07 ± 0.15; TGQLDV: 1.75 ± 0.58.
On to VLPLQKPRDVGSVISARQWG, for which the amyloid nucleation score is 0.837 ± 0.53.
Consider CFVFLFFVPLWSRNRGEYMY, for which the amyloid nucleation score is -0.937 ± 0.68.
As for MVMMFTTDSMQAN, the amyloid nucleation score came to 0.906 ± 0.52.
In the case of SRASKYMYVWVVLITFHCLR, the amyloid nucleation score result is “inactive”.
Next, RTTFA: 0.38 ± 0.33; LVQVWLKN: 0.43 ± 0.34.
The substance AYAVVGAM came in with an amyloid nucleation score of 0.604 ± 0.69.
The result for NNCSWIIGHRVVPTSRGE reads -0.329 ± 0.45; that for SKSTYSLIGLGTFISRFNGN, 1.03 ± 0.36; that for RILCHLTNRWFEFDEVLVGV, 0.835 ± 0.48.
The result for EQHSPHPTIEKIALTCFTRC reads -0.189 ± 0.4.
Next, CFIRLNNWLF: 1.59 ± 0.46.
With IGSVDALKVVDVAMCVPT, the amyloid nucleation score was 2.34 ± 0.54.
In turn, ILEFDDKKVLNLVEGKLLGA had an amyloid nucleation score of -0.383 ± 1.7.
For the substance MKRDSFPLFNFCLA, the amyloid nucleation score turned out to be 0.137 ± 0.5.
GEKWMLEVASFICKSGFRVC gave an amyloid nucleation score of -0.535 ± 1.7.
In the case of IEWRVKLRLLRCQYID, the amyloid nucleation score was -0.507 ± 0.34.
Take GFGPS: the amyloid nucleation score was -0.275 ± 0.38.
In turn, THFMYIVELERGRLFGCSVR showed an amyloid nucleation score of 0.115 ± 1.
CLWGILDEGRFGSWFNNFAS came in with an amyloid nucleation score of 0.467 ± 0.9.
SMFLLRPYRVCFCSRRFVTV had an amyloid nucleation score of 0.253 ± 0.77.
Consider KELIKCYLNM, for which the amyloid nucleation score stood at 0.463 ± 0.5.
Next, HCCSYLLKR: -0.174 ± 0.61; RVQCNNMKVCGITIFLMRS: 6.516 ± 0.049; YRPWMRYLTLIGNYRHAGHS: 0.633 ± 0.62.
For KSCAHSYEFHHCNCAVVFTL, the amyloid nucleation score is 6.6 ± 0.051.
Turning to VWLCLRIVVSGNNRACFICV, the amyloid nucleation score was found to be 1.46 ± 0.19.
Substance IWMFISAVASFNITRSWCYL yielded an amyloid nucleation score of 2.02 ± 0.13.
Regarding CCLVLSFLCNMEDSRNGG, the amyloid nucleation score is 6.363 ± 0.056.
Consider RLNNLWKFDEVLLGSSNRTR, for which the amyloid nucleation score was -1.24 ± 0.44.
For the substance WHMVKSVSTNIV, the amyloid nucleation score was -0.386 ± 0.58.
Substance AIIDMDMSFRSGGCTNGVDV displayed an amyloid nucleation score of 1.06 ± 0.32.
As for HIPNDARRLFGSMGVSRASA, the amyloid nucleation score was -0.407 ± 1.
HCTLHSSVCSSGCWIE showed an amyloid nucleation score of 1.1 ± 0.97.
LNISQRRIYFWSYWLHHITY showed an amyloid nucleation score of -0.282 ± 0.6.
DCISRLWR showed an amyloid nucleation score of -0.83 ± 0.89.
ARAGWRSYYRGHLCSESANE yielded an amyloid nucleation score of 0.273 ± 0.65.
As for GNWYLCTGF, the amyloid nucleation score worked out at 1.58 ± 0.1.
The substance THDAFF came in with an amyloid nucleation score of 0.642 ± 0.48.
Next, IGSFDYGSNLGQIYGHNMLK: -0.685 ± 0.6.
With MCNDGSYYAILACGVSLRVL, the amyloid nucleation score entry was “inactive”.
The substance LGLGQSGRV gave an amyloid nucleation score of -0.15 ± 0.71.
YSVLCIMRTLHAEIWFTGGI: the amyloid nucleation score is -0.023 ± 1.4.
For FATRTLVYVYFRWCHDDLSH, the amyloid nucleation score stood at 0.584 ± 0.56.
IKISHACATMRQSGGFYVLK had an amyloid nucleation score of -0.511 ± 0.39.
Turning to DNMYIFEN, the amyloid nucleation score is -0.352 ± 0.46.
For SLRDACFGVNI, the amyloid nucleation score was -0.091 ± 0.29.
DRGDLAFSFSGQRTGGKEPR yielded an amyloid nucleation score of -0.219 ± 0.51.
PTSSGNATAWRNLNLLLCEL: the amyloid nucleation score was found to be 0.328 ± 0.97.
The substance HSSKYRRFVSTTVTIVSVSR had an amyloid nucleation score of 4.01 ± 0.09.
Next, MDCWENVIRQKASSSGWLEN: -0.725 ± 0.52; VEIGFFQRHKARIFMGTRSL: -0.209 ± 0.34; HQIYVLATETNSPMLRWKLQ: 0.879 ± 0.98.
Next, GGLDSNRQLVKFYTSWNYNC: -0.057 ± 0.39; FFTCNGWAGS: -0.614 ± 0.38; FWVSCRSMCEIRVSLKLRLN: 0.719 ± 0.59.
In the case of QLVKSVY, the amyloid nucleation score was -0.166 ± 0.35.
Turning to RWGATRFVVTS, the amyloid nucleation score turned out to be 0.304 ± 1.2.
Next, IANCQAGWGCRQA: 0.315 ± 0.32; SLVWVCFWGICI: 6.67 ± 0.088.
In the case of RYLSHHP, the amyloid nucleation score came to 0.609 ± 0.55.
The result for EDTSKVKICFSVIVYSMLNR reads 8.161 ± 0.045; that for YPLSLRYQCI, 0.2 ± 0.25; that for CVSATRV, 0.042 ± 0.48.
Next, IKHFGISTR: 0.17 ± 0.79; DMTAVYLFVTVYSYDLSC: 0.569 ± 0.14.
For the substance NKLCTR, the amyloid nucleation score result was “inactive”.
With SPCWSHF, the amyloid nucleation score result was “inactive”.
RKYQQGSLHDSGIKNHFFRV yielded an amyloid nucleation score of -0.97 ± 1.7.
The substance KCREIALHYPAYIPFVLIAY came in with an amyloid nucleation score of -0.031 ± 0.82.
Next, WLSHGIEVVVHKTSSVSYWR: -0.796 ± 1.1; AKSQYMVVVYMPIYLWQCYI: 4.01 ± 0.14; TLFRGMGYSWNVNKPDARKV: -0.403 ± 1.4.
GFLICVFLSLVGYFGTCLRT registered an amyloid nucleation score of -0.554 ± 0.97.
For ISYSYVTIIA, the amyloid nucleation score was -0.181 ± 0.27.
The substance HYSFFE gave an amyloid nucleation score of -0.806 ± 0.8.
PLLYLPNWLISCFYLLF returned an amyloid nucleation score of 0.263 ± 0.53.
In the case of HGTCRC, the amyloid nucleation score is 0.034 ± 0.68.
With PHGHVEYLIFFCNKPGSHGS, the amyloid nucleation score worked out at 1.49 ± 0.3.
CIFAYKCSIYERESL had an amyloid nucleation score of 0.776 ± 0.49.
For the substance DLFCFELVDHTLLLGWTTVQ, the amyloid nucleation score is -0.564 ± 0.66.
On to LVCFGFSNNCCELCCYYSNL, for which the amyloid nucleation score was found to be 0.765 ± 0.61.
Take MGYRDNLSF: the amyloid nucleation score was found to be 0.915 ± 0.53.
Regarding GPYCHGWNLKNERAVSLRG, the amyloid nucleation score was -0.647 ± 0.47.
The substance HYDSMTAL came in with an amyloid nucleation score of 0.491 ± 0.62.
For the substance HISMRDFFSHLGRRVVGIMY, the amyloid nucleation score was -1.1 ± 0.45.
The substance HSNCVDSRCETARTS registered an amyloid nucleation score of 1.47 ± 0.47.
On to PWSALTASGTKISSSKSRLG, for which the amyloid nucleation score was -0.331 ± 0.93.
The substance CNFSQYMRVHHTSYLEPTDH had an amyloid nucleation score of 3.22 ± 0.12.
SIFLCVSLSVTCETILAGLD: the amyloid nucleation score is 2.8 ± 0.16.
The result for VCLGLSQDLHKSYTVRSAT reads -0.009 ± 0.41; that for MGAWINYIAPTRYYLMDFFW, -1.7 ± 2.4; that for CIGWSNGAPRCNQGRQRDRG, 0.828 ± 0.66.
For the substance RDVCLQSGMVVFYF, the amyloid nucleation score is 6.905 ± 0.061.
Take ILCLKTDGLGDESRGVSEAG: the amyloid nucleation score stood at 0.27 ± 0.75.
Next, WPASLSSCIS: -0.047 ± 0.66; KKSGRYESVSQGWYDRLLQF: -0.667 ± 0.31.
The result for RGYMCHCRVVSACFLYRKVQ reads -0.044 ± 0.25; that for KSFNVLCHIAVVPNRWVGRT, 2.49 ± 0.13; that for LLVPHYFLEL, 0.222 ± 0.43.
Consider TIFGHVRGSYETKWMWAPWR, for which the amyloid nucleation score stood at 2.98 ± 0.12.
In turn, KFCLDLSYLFSSRTVMYEIV yielded an amyloid nucleation score of -0.24 ± 0.26.
NYHFDWLRFFRHQREVGEVA had an amyloid nucleation score of 0.4 ± 0.8.
Consider SQCSSLIHAIEMDRFVF, for which the amyloid nucleation score amounted to 0.276 ± 0.23.
With RRGVYSKVFAENHVLCMLSL, the amyloid nucleation score came to 4.01 ± 0.067.
Next, DVKCRLWIHAL: -0.066 ± 0.54; NVQGSHSCSISCYIMPGRAM: 5.56 ± 0.077; SRLQLNWLQPRWY: 4.27 ± 0.077.
As for GCSTYMVLMVGLGGGMLGGF, the amyloid nucleation score worked out at 1.32 ± 0.26.
Substance ELSLKVFPTARIKRCMFEPM returned an amyloid nucleation score of 0.838 ± 0.45.
For KNAPLPRIVTIGKVLRYNRG, the amyloid nucleation score was 0.422 ± 0.79.
EVMVSAGVTIACSPVVIRFR: the amyloid nucleation score was 1.47 ± 0.54.
Take SKLYLIEVFLYA: the amyloid nucleation score was -0.468 ± 0.66.
Take CWRSVCGLLATGNQYFFGNA: the amyloid nucleation score stood at 4.88 ± 0.07.
The result for VLRWLRKRSFSI reads -0.076 ± 0.6; that for KMSVRNVTDFGVRLVRYFNG, 1.42 ± 0.22.
In turn, THQGWYSQNEHERRWIVHSF yielded an amyloid nucleation score of 0.028 ± 0.58.
As to SYYNSVWTRYECAVVWT, the amyloid nucleation score came to 0.413 ± 1.1.
As for YFDVL, the amyloid nucleation score was -0.537 ± 0.48.
With LGFQLFNQGWAQNSTPRFSY, the amyloid nucleation score was -1.29 ± 1.9.
As to ILFCYLYFMLNNFT, the amyloid nucleation score worked out at 1.07 ± 0.14.
LIGFAGRVYGAFLQVSMTWN displayed an amyloid nucleation score of 3.2 ± 0.15.
CQVVLISWTGSHKGNLEHNA came in with an amyloid nucleation score of 1.08 ± 0.3.
The substance DLSWGSRHY registered an amyloid nucleation score of -0.899 ± 0.42.
The substance VGFYCHLCGYLVWGRWKHSA had an amyloid nucleation score of 1.18 ± 0.97.
As to CSTRLSSKFSDTIYVEVFSF, the amyloid nucleation score result was “inactive”.
Take GVLNVL: the amyloid nucleation score is -0.418 ± 0.62.
TWPVLSDGQAGELRVRMGSA yielded an amyloid nucleation score of 0.741 ± 0.88.
TSYYRGFYKYAWNG: the amyloid nucleation score worked out at 0.21 ± 0.39.
For the substance SHPTNFSCIVVSARQGVKKI, the amyloid nucleation score was -0.148 ± 0.79.
LGSRFMRV gave an amyloid nucleation score of 0.635 ± 1.2.
The result for FINNNVEDYFISL reads 0.712 ± 0.41.
Turning to ASFYPKPS, the amyloid nucleation score was 0.4 ± 1.1.
As for NFFQWPSVETWTASIN, the amyloid nucleation score was -0.144 ± 0.41.
